# Results taken from paper PMC3713010, “Sox2 Transcriptionally Regulates Pqbp1, an Intellectual Disability-Microcephaly Causative Gene, in Neural Stem Progenitor Cells”.
# T1: Brn2 DNA-binding domain (BD-Brn2) (Mus musculus (B6), UniProt P31360 336-435)
# T1 sequence: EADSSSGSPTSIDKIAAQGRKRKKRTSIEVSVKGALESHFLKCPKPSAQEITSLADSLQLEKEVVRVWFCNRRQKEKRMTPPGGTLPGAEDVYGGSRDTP
# T2: Oct6 DNA-binding domain (BD-Oct6) (Mus musculus (B6), UniProt P21952 317-416)
# T2 sequence: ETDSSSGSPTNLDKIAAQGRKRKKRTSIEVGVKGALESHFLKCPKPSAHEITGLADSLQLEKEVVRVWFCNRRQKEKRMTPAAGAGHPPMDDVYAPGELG
# B1: 96 (dsDNA)
# DNA 1: GGGGGACATAGACACAAATAGCAGACAATGACCTTGACCCCC
# DNA 2: GGGGGTCAAGGTCATTGTCTGCTATTTGTGTCTATGTCCCCC
# B2: 91 (dsDNA)
# DNA 1: GGGGGTTTGTTTGTTTGTTTTTAAAAATAAGGTCTCGGGCCCCC
# DNA 2: GGGGGCCCGAGACCTTATTTTTAAAAACAAACAAACAAACCCCC
# B3: 76 (dsDNA)
# DNA 1: GGGGGCAGGTATGATTGTCCATATTGCTAATAAACCCCCC
# DNA 2: GGGGGGTTTATTAGCAATATGGACAATCATACCTGCCCCC
# B4: 99 (dsDNA)
# DNA 1: GGGGGATATAACAAGATAATCATTGTTTTGAATATTCCAAGGATTTCCCCC
# DNA 2: GGGGGAAATCCTTGGAATATTCAAAACAATGATTATCTTGTTATATCCCCC
# B5: 84 (dsDNA)
# DNA 1: GGGGGTATGAATCACAATGTAAATATCTGTGTTTACCCCC
# DNA 2: GGGGGTAAACACAGATATTTACATTGTGATTCATACCCCC
# B6: 80 (dsDNA)
# DNA 1: GGGGGCATCCCAAATTGTTTTCTCACTTTTGTACCACAGATAGATCCCCC
# DNA 2: GGGGGATCTATCTGTGGTACAAAAGTGAGAAAACAATTTGGGATGCCCCC
# B7: 97 (dsDNA)
# DNA 1: GGGGGTAGATGCTACAAAAGATACTGATTAAAACCCAAATGCCCCC
# DNA 2: GGGGGCATTTGGGTTTTAATCAGTATCTTTTGTAGCATCTACCCCC
# B8: 83 (dsDNA)
# DNA 1: GGGGGGTCCAAGTTTTGTGACCCTTTAATACAGTTAGATCCCCCC
# DNA 2: GGGGGGATCTAACTGTATTAAAGGGTCACAAAACTTGGACCCCCC
# B9: 94 (dsDNA)
# DNA 1: GGGGGATCTGTAAAGGAAATTACTTTGTAGGAAATTTGATGGAACTGCCCCC
# DNA 2: GGGGGCAGTTCCATCAAATTTCCTACAAAGTAATTTCCTTTACAGATCCCCC
# B10: 89 (dsDNA)
# DNA 1: GGGGGCTACCACACCCAACCTCTAGTAAAGGTTTACAAAATGAATGACCCCC
# DNA 2: GGGGGTCATTCATTTTGTAAACCTTTACTAGAGGTTGGGTGTGGTAGCCCCC
# B11: 79 (dsDNA)
# DNA 1: GGGGGTGATAGTAACAAAAACCATTTTGTTTTTGGCTCCCCC
# DNA 2: GGGGGAGCCAAAAACAAAATGGTTTTTGTTACTATCACCCCC
# B12: 78 (dsDNA)
# DNA 1: GGGGGTCTTTTGATTTGTCCGATTTAGGTTTTAAACCCCC
# DNA 2: GGGGGTTTAAAACCTAAATCGGACAAATCAAAAGACCCCC
# B13: 90 (dsDNA)
# DNA 1: GGGGGTGCTGTTTTTTGTTACTGTCACTAATTACATTTTAAATTATCCCCC
# DNA 2: GGGGGATAATTTAAAATGTAATTAGTGACAGTAACAAAAAACAGCACCCCC
# B14: 95 (dsDNA)
# DNA 1: GGGGGGGTTTTCTTTTGTACACTTAATATCCGCTGGGGCCCCC
# DNA 2: GGGGGCCCCAGCGGATATTAAGTGTACAAAAGAAAACCCCCCC
# B15: 87 (dsDNA)
# DNA 1: GGGGGTTATGACTGTTTAATAATATATATTGTGTTCTGGCCCCCC
# DNA 2: GGGGGGCCAGAACACAATATATATTATTAAACAGTCATAACCCCC
# B16: 82 (dsDNA)
# DNA 1: GGGGGACTATTTATTTGTGTTTTCCTATTCACTTTACATCCCCC
# DNA 2: GGGGGATGTAAAGTGAATAGGAAAACACAAATAAATAGTCCCCC
# B17: 93 (dsDNA)
# DNA 1: GGGGGATAGAGGCACAAAAATTTCCAGAGACTGGCCCCC
# DNA 2: GGGGGCCAGTCTCTGGAAATTTTTGTGCCTCTATCCCCC
# B18: 77 (dsDNA)
# DNA 1: GGGGGTATGTCTATTTGTTTTTTATTTTTTGAAGACTCCCCC
# DNA 2: GGGGGAGTCTTCAAAAAATAAAAAACAAATAGACATACCCCC
# B19: 86 (dsDNA)
# DNA 1: GGGGGAGTTTAGTTTGTAGAGTACTTACCTAGCAGCACAAAGCCCTGCCCCC
# DNA 2: GGGGGCAGGGCTTTGTGCTGCTAGGTAAGTACTCTACAAACTAAACTCCCCC
# B20: 81 (dsDNA)
# DNA 1: GGGGGAGAGTGCTGGTATTAAAAGGCACAAACTTTCTTTCCCCC
# DNA 2: GGGGGAAAGAAAGTTTGTGCCTTTTAATACCAGCACTCTCCCCC
# B21: 92 (dsDNA)
# DNA 1: GGGGGATATAATAATAAATCTTTAAAACAAAAAAAAAAACCCCC
# DNA 2: GGGGGTTTTTTTTTTTGTTTTAAAGATTTATTATTATATCCCCC
# B22: 88 (dsDNA)
# DNA 1: GGGGGTGTTTTGTTTTGTTTTTTGTATTGGGAAGTGGGCCCCC
# DNA 2: GGGGGCCCACTTCCCAATACAAAAAACAAAACAAAACACCCCC
# B23: 85 (dsDNA)
# DNA 1: GGGGGACATATGCAATTGTTTCCTGTATTATAGTAGAGATCCCCC
# DNA 2: GGGGGATCTCTACTATAATACAGGAAACAATTGCATATGTCCCCC
# B24: 98 (dsDNA)
# DNA 1: GGGGGTTATGAATACAATTCATTATAACCATGGATCCCCC
# DNA 2: GGGGGATCCATGGTTATAATGAATTGTATTCATAACCCCC
# Assays:
# Experiment in all cases: EMSA; 10% glycerol, 20 mM HEPES pH 7.8, 45 mM KCl, 10 mM NaCl, 1 mM EDTA, 1 mM DTT, 0.2 ug/uL BSA, 0.1% NP-40, 50 ng poly-dIdC; 20 ng each GST protein; room temperature 30 min (heterodimers 4 C); 6% PAGE 0.25x TBE
# Settings in all cases: protein: recombinant; tags: GST (N-terminal, pGEX-6P-1); label: 32P-dCTP fill-in of the 5' (dG)5 overhangs of both strands (Methods; control probes are given with GGG)
# [1] = target: T1, Brn2 DNA-binding domain (BD-Brn2)
# Summary of the method: (§1)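 GST-tagged transcription factor DNA-binding domains were made in E. coli BL21 and purified on glutathione-sepharose. They were tested against candidate cis-element oligonucleotides, annealed and labelled with 32P-dCTP. Each protein (20 ng) was mixed with 40,000–50,000 cpm probe and 50 ng poly-dIdC in HEPES/KCl glycerol buffer with BSA and detergent for 30 min at room temperature. Samples were resolved on 6% polyacrylamide in 0.25×TBE at 4°C. DNA binding was scored as band radioactivity in the expected shift region, measured on a BAS4000 imager.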
# [2] = target: Pax6 DNA-binding domain (BD-Pax6) (Mus musculus (B6), UniProt P63015 190-289)
# Chain of Pax6 DNA-binding domain (BD-Pax6) (P63015 190-289): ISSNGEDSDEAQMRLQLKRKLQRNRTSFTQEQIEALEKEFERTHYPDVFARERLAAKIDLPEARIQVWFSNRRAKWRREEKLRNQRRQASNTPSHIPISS
# Summary of the method: as §1
# [3] = target: T2, Oct6 DNA-binding domain (BD-Oct6)
# Summary of the method: as §1
Binder,binding result [1],binding result [2],binding result [3]
B1,no binding,no binding,no binding
B2,no binding,binds,binds
B3,binds,binds,binds
B4,binds,binds,binds
B5,no binding,binds,no binding
B6,no binding,no binding,binds
B7,binds,binds,binds
B8,no binding,binds,binds
B9,binds,binds,binds
B10,no binding,binds,no binding
B11,no binding,no binding,no binding
B12,no binding,no binding,binds
B13,binds,binds,binds
B14,no binding,binds,binds
B15,binds,binds,binds
B16,no binding,no binding,binds
B17,no binding,no binding,no binding
B18,no binding,no binding,no binding
B19,no binding,no binding,no binding
B20,no binding,no binding,no binding
B21,binds,binds,binds
B22,no binding,no binding,no binding
B23,no binding,binds,no binding
B24,binds,no binding,binds
